Test results taken from publication PMC9958131 (Nature Communications, 2023).

B1: Keratin, type II cuticular Hb5 (protein, UniProt P78386 1-507, looked up)
Keratin, type II cuticular Hb5: MSCRSYRISSGCGVTRNFSSCSAVAPKTGNRCCISAAPYRGVSCYRGLTGFGSRSLCNLGSCGPRIAVGGFRAGSCGRSFGYRSGGVCGPSPPCITTVSVNESLLTPLNLEIDPNAQCVKQEEKEQIKSLNSRFAAFIDKVRFLEQQNKLLETKWQFYQNQRCCESNLEPLFSGYIETLRREAECVEADSGRLASELNHVQEVLEGYKKKYEEEVALRATAENEFVVLKKDVDCAYLRKSDLEANVEALVEESSFLRRLYEEEIRVLQAHISDTSVIVKMDNSRDLNMDCIIAEIKAQYDDVASRSRAEAESWYRSKCEEMKATVIRHGETLRRTKEEINELNRMIQRLTAEIENAKCQRAKLEAAVAEAEQQGEAALSDARCKLAELEGALQKAKQDMACLLKEYQEVMNSKLGLDIEIATYRRLLEGEEHRLCEGVGSVNVCVSSSRGGVSCGGLSYSTTPGRQITSGPSAIGGSITVVAPDSCAPCQPRSSSFSCGSSRSVRFA
B2: Galectin-3-binding protein (protein, UniProt Q08380 19-585, looked up)
Galectin-3-binding protein: VNDGDMRLADGGATNQGRVEIFYRGQWGTVCDNLWDLTDASVVCRALGFENATQALGRAAFGQGSGPIMLDEVQCTGTEASLADCKSLGWLKSNCRHERDAGVVCTNETRSTHTLDLSRELSEALGQIFDSQRGCDLSISVNVQGEDALGFCGHTVILTANLEAQALWKEPGSNVTMSVDAECVPMVRDLLRYFYSRRIDITLSSVKCFHKLASAYGARQLQGYCASLFAILLPQDPSFQMPLDLYAYAVATGDALLEKLCLQFLAWNFEALTQAEAWPSVPTDLLQLLLPRSDLAVPSELALLKAVDTWSWGERASHEEVEGLVEKIRFPMMLPEELFELQFNLSLYWSHEALFQKKTLQALEFHTVPFQLLARYKGLNLTEDTYKPRIYTSPTWSAFVTDSSWSARKSQLVYQSRRGPLVKYSSDYFQAPSDYRYYPYQSFQTPQHPSFLFQDKRVSWSLVYLPTIQSCWNYGFSCSSDELPVLGLTKSGGSDRTIAYENKALMLCEGLFVADVTDFEGWKAAIPSALDTNSSKSTSSFPCPAGHFNGFRTVIRPFYLTNSSGVD
B3: Angiotensinogen (protein, UniProt P01019 25-476, looked up)
Angiotensinogen: DRVYIHPFHLVIHNESTCEQLAKANAGKPKDPTFIPAPIQAKTSPVDEKALQDQLVLVAAKLDTEDKLRAAMVGMLANFLGFRIYGMHSELWGVVHGATVLSPTAVFGTLASLYLGALDHTADRLQAILGVPWKDKNCTSRLDAHKVLSALQAVQGLLVAQGRADSQAQLLLSTVVGVFTAPGLHLKQPFVQGLALYTPVVLPRSLDFTELDVAAEKIDRFMQAVTGWKTGCSLMGASVDSTLAFNTYVHFQGKMKGFSLLAEPQEFWVDNSTSVSVPMLSGMGTFQHWSDIQDNFSVTQVPFTESACLLLIQPHYASDLDKVEGLTFQQNSLNWMKKLSPRTIHLTMPQLVLQGSYDLQDLLAQAELPAILHTELNLQKLSNDRIRVGEVLNSIFFELEADEREPTESTQQLNKPEVLEVTLNRPFLFAVYDQSATALHFLGRVANPLSTA
B4: Carboxypeptidase N subunit 2 (protein, UniProt P22792 22-545, looked up)
Carboxypeptidase N subunit 2: CPMGCDCFVQEVFCSDEELATVPLDIPPYTKNIIFVETSFTTLETRAFGSNPNLTKVVFLNTQLCQFRPDAFGGLPRLEDLEVTGSSFLNLSTNIFSNLTSLGKLTLNFNMLEALPEGLFQHLAALESLHLQGNQLQALPRRLFQPLTHLKTLNLAQNLLAQLPEELFHPLTSLQTLKLSNNALSGLPQGVFGKLGSLQELFLDSNNISELPPQVFSQLFCLERLWLQRNAITHLPLSIFASLGNLTFLSLQWNMLRVLPAGLFAHTPCLVGLSLTHNQLETVAEGTFAHLSNLRSLMLSYNAITHLPAGIFRDLEELVKLYLGSNNLTALHPALFQNLSKLELLSLSKNQLTTLPEGIFDTNYNLFNLALHGNPWQCDCHLAYLFNWLQQYTDRLLNIQTYCAGPAYLKGQVVPALNEKQLVCPVTRDHLGFQVTWPDESKAGGSWDLAVQERAARSQCTYSNPEGTVVLACDQAQCRWLNVQLSPQQGSLGLQYNASQEWDLRSSCGSLRLTVSIEARAAGP
B5: Kininogen-1 (protein, UniProt P01042 19-644, looked up)
Kininogen-1: QESQSEEIDCNDKDLFKAVDAALKKYNSQNQSNNQFVLYRITEATKTVGSDTFYSFKYEIKEGDCPVQSGKTWQDCEYKDAAKAATGECTATVGKRSSTKFSVATQTCQITPAEGPVVTAQYDCLGCVHPISTQSPDLEPILRHGIQYFNNNTQHSSLFMLNEVKRAQRQVVAGLNFRITYSIVQTNCSKENFLFLTPDCKSLWNGDTGECTDNAYIDIQLRIASFSQNCDIYPGKDFVQPPTKICVGCPRDIPTNSPELEETLTHTITKLNAENNATFYFKIDNVKKARVQVVAGKKYFIDFVARETTCSKESNEELTESCETKKLGQSLDCNAEVYVVPWEKKIYPTVNCQPLGMISLMKRPPGFSPFRSSRIGEIKEETTVSPPHTSMAPAQDEERDSGKEQGHTRRHDWGHEKQRKHNLGHGHKHERDQGHGHQRGHGLGHGHEQQHGLGHGHKFKLDDDLEHQGGHVLDHGHKHKHGHGHGKHKNKGKKNGKHNGWKTEHLASSSEDSTTPSAQTQEKTEGPTPIPSLAKPGVTVTFSDFQDSDLIATMMPPISPAPIQSDDDWIPDIQIDPNGLSFNPISDFPDTTSPKCPGRPWKSVSEINPTTQMKESYYFDLTDGLS
B6: Tubulin beta-4A chain (protein, UniProt P04350 1-444, looked up)
Tubulin beta-4A chain: MREIVHLQAGQCGNQIGAKFWEVISDEHGIDPTGTYHGDSDLQLERINVYYNEATGGNYVPRAVLVDLEPGTMDSVRSGPFGQIFRPDNFVFGQSGAGNNWAKGHYTEGAELVDAVLDVVRKEAESCDCLQGFQLTHSLGGGTGSGMGTLLISKIREEFPDRIMNTFSVVPSPKVSDTVVEPYNATLSVHQLVENTDETYCIDNEALYDICFRTLKLTTPTYGDLNHLVSATMSGVTTCLRFPGQLNADLRKLAVNMVPFPRLHFFMPGFAPLTSRGSQQYRALTVPELTQQMFDAKNMMAACDPRHGRYLTVAAVFRGRMSMKEVDEQMLSVQSKNSSYFVEWIPNNVKTAVCDIPPRGLKMAATFIGNSTAIQELFKRISEQFTAMFRRKAFLHWYTGEGMDEMEFTEAESNMNDLVSEYQQYQDATAEEGEFEEEAEEEVA

What follows are molecules tested on recombinant human PAD2 and PAD4 (assay: Citrullination site mapping by trypsin digestion and mass spectrometry; protein-level modifications over native, PAD2- and PAD4-citrullinated samples combined). Settings: trypsin digest, Sequest HT search; co-identified proteins in the fibrinogen and vimentin samples (native, PAD2-cit, PAD4-cit); not split by sample or enzyme.
Assay type: biochemical
Description: Description: Raw mass spectrometry data for proteolytic mapping of fibrinogen, vimentin, and hnRNP A2/B1 by cathepsins B, S, and H (sheets 1-6); citrullination site mapping of fibrinogen and vimentin by trypsin digestion (sheets 7-8); and the natural antigen processing assay with native, PAD2-citrullinated (PAD2-cit), and PAD4-citrullinated (PAD4-cit) fibrinogen (sheets 9-11).
In the case of B1, the “Modifications (Deamidated [R...] = citrullinated arginine positions found)” value (“Modifications” below) is reported as “Deamidated [R142]”.
In the case of B2, the “Modifications” value is reported as “Deamidated [R63; R426; R435; R436; R570]”.
With B3 the “Modifications” value was “Deamidated [R237]”.
B4 was tested, and the “Modifications” value was “Deamidated [R89; R449]”.
In the case of B5, the “Modifications” value is reported as “Deamidated [R269; R389; R392]”.
B6 was tested, and the “Modifications” value was “Deamidated [R2]”.
